Assay results as given in patent US20230139516A1 (CEDARS SINAI MEDICAL CENTER, published 2023).

Tests used:
[1] = molecular target: T1, receptor-interacting protein kinase 2 (RIPK2), endogenous (human, UniProt O43353 1-540); assay: PLA of endogenous proteins in HEK293T and parental PC cells (FIG. 20A-B)
T1 construct: Endogenous protein detected in cells with anti-RIPK2 antibodies (PLA, IP)

[2] = molecular target: T2, 3×FLAG-tagged RIPK2 (RIPK2m4 with C-terminal 3×FLAG tag) (human, UniProt O43353 1-540); assay: IP of RIPK2 complexes, label-free MS (heatmap and LFQ histogram, FIG. 5A-B)
T2 construct: The same label (3×Flag-tagged RIPK2, expressed in HeLa cells) is the enzyme of the in vitro kinase assay; also called RIPK2-Flag; RIPK2m4-3×FLAG; not shown: 3×FLAG tag fused to the C-terminus
T2 sequence (O43353 whole entry, the tested form may be a part): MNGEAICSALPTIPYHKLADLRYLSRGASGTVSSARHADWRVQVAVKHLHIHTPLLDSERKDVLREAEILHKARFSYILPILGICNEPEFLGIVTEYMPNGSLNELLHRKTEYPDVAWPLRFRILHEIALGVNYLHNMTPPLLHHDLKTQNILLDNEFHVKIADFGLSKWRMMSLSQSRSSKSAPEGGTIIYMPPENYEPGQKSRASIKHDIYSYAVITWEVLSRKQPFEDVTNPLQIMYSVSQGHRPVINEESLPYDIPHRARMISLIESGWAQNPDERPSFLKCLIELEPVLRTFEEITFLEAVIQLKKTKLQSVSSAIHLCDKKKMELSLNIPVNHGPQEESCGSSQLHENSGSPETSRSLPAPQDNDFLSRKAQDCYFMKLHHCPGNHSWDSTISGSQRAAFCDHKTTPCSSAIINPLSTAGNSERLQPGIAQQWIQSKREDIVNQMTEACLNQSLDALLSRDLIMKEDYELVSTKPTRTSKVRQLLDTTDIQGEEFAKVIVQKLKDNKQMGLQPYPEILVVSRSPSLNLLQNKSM

c-Myc = molecular target: T3, c-Myc (human, UniProt P01106-1 1-439, limits assumed); assay: PLA of endogenous proteins in HEK293T cells (FIG. 21B)
T3 construct: also called c-Myc oncoprotein
T3 sequence (P01106 16-454 limits assumed): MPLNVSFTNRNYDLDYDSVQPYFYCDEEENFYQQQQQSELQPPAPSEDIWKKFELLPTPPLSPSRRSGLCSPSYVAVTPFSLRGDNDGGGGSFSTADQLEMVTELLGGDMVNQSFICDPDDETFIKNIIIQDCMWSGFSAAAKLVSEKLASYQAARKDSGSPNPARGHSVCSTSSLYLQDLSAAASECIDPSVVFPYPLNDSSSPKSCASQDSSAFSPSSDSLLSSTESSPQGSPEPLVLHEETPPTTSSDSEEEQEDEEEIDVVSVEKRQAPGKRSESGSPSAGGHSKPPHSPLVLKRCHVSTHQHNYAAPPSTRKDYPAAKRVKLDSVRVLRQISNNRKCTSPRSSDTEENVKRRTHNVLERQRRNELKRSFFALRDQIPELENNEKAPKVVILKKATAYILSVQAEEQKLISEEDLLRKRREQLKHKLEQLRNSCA

Measured: binding result

T1 sequence (O43353 whole entry): as the sequence (O43353 whole entry, the tested form may be a part) above

B1: MKK7 (MAP2K7), endogenous (enzyme, human, UniProt O14733 2-419, looked up)
chain: AASSLEQKLSRLEAKLKQENREARRRIDLNLDISPQRPRPTLQLPLANDGGSRSPSSESSPQHPTPPARPRHMLGLPSTLFTPRSMESIEIDQKLQEIMKQTGYLTIGGQRYQAEINDLENLGEMGSGTCGQVWKMRFRKTGHVIAVKQMRRSGNKEENKRILMDLDVVLKSHDCPYIVQCFGTFITNTDVFIAMELMGTCAEKLKKRMQGPIPERILGKMTVAIVKALYYLKEKHGVIHRDVKPSNILLDERGQIKLCDFGISGRLVDSKAKTRSAGCAAYMAPERIDPPDPTKPDYDIRADVWSLGISLVELATGQFPYKNCKTDFEVLTKVLQEEPPLLPGHMGFSGDFQSFVKDCLTKDHRKRPKYNKLLEHSFIKRYETLEVDVASWFKDVMAKTESPRTSGVLSQPHLPFFR
binds: all assays above
